Reference: patent publication US20260049143A1 (KYMAB, published 2026)
Each block holds one binder with its values, some of them ahead of it.

Assays:
[1] = target: T1, mouse ICOS-mFc (Chimerigen) (mouse, UniProt Q9WVS0 21-141, limits assumed); test: HTRF neutralisation of mouse B7-H2 binding to mouse ICOS-mFc, n2
T1 construct: Bought fusion; also called mICOS; recombinant mouse ICOS protein; not shown: mouse Fc
T1 sequence: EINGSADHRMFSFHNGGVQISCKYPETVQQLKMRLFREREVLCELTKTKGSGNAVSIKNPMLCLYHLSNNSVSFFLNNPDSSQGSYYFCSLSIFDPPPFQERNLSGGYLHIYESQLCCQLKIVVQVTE
Method: 5 μl of human ICOS-mFc (Chimerigen) at 20 nM (5 nM final) or 5 μl of mouse ICOS-mFc (Chimerigen) at 4 nM (1 nM final) were added to relevant assay wells. Plate was incubated for 1 hour (hr) at room temperature (RT).
(§1) After incubation, assay was read on Envision plate reader (Perkin Elmer) using a standard HTRF protocol. 620 nm and 665 nm channel values were exported to Microsoft Excel and % Delta-F and % Neutralisation calculations performed. Titration curves and IC50 values [M] were plotted using Graphpad (Prism). IC50 values were calculated by first transforming the data using equation X=Log(X). The transformed data was then fitted using nonlinear regression, using fitting algorithm, log (inhibitor) vs. response-variable slope (four parameters).

[2] = target: T1, mouse ICOS-mFc (Chimerigen); test: HTRF neutralisation of mouse B7-H2 binding to mouse ICOS-mFc, mean as told in text (table prints 5.07)
Method: as §1

[3] = target: T1, mouse ICOS-mFc (Chimerigen); test: DELFIA ELISA, coated mouse ICOS-mFc, mean (only N=1 kept)
Method: (§2) Recombinant ICOS proteins, human ICOS-mFc or mouse ICOS-mFc (Chimerigen) were diluted in 1×PBS and added to Black Hi-bind plates (Griener) at 1 μg/ml, 50 μl/well. Recombinant PD-L1 proteins, human PD-L1-Flag-His or mouse-His were diluted in 1×PBS and added to Black Hi-bind plates (Griener) at 4 μg/ml, 50 μl/well. The plates were left overnight at 4° C. The next day plates were washed 3× with 300 μl/well of 1×PBS+0.1% Tween and blocked with 200 μl/well of 1×PBS+1% BSA blocking buffer for 1 hr at RT on a plate shaker. Plates were washed 3× with 300 μl/well of 1×PBS+0.1% Tween.
(§3) However, human-PD-L1 mAb² antibodies were diluted in 1×PBS+0.1% BSA buffer and diluted 1 in 2 from a starting working concentration of 0.066 μM over an 11 point titration. Titrated antibodies were added to the plates, 50 μl/well and left to incubate for 1 hr at R.T on a plate shaker. Plates were washed 3× with 300 μl/well of 1×PBS+0.1% Tween.
(§4) DELFIA® Eu-labelled Anti-human IgG(Perkin-Elmer) was diluted 1:500 in DELFIA Assay buffer (Perkin-Elmer) and added to the assay plate (50 μl/well), left to incubate for 1 hr at RT on a plate shaker. […] After incubation, assay was read on Envision plate reader (Perkin Elmer), Time-resolved fluorescence (TRF) was measured at 615 nm.

[4] = target: T2, human ICOS-mFc (Chimerigen) (human, UniProt Q9Y6W8 21-140, limits assumed); test: DELFIA ELISA, coated human ICOS-mFc, N=2
T2 construct: Bought fusion; also called hICOS; recombinant human ICOS protein; not shown: mouse Fc
T2 sequence: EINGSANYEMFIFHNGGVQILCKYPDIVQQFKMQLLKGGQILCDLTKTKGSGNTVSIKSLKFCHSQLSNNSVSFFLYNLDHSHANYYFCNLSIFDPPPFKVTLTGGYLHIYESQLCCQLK
Method: as §2, §3, §4

[5] = target: T1, mouse ICOS-mFc (Chimerigen); test: DELFIA ELISA, coated mouse ICOS-mFc, N=2
Method: as §2, §3, §4

[6] = target: T1, mouse ICOS-mFc (Chimerigen); test: DELFIA ELISA, coated mouse ICOS-mFc, mean
Method: as §2, §3, §4

[7] = target: T1, mouse ICOS-mFc (Chimerigen); test: DELFIA ELISA, coated mouse ICOS-mFc, N=3
Method: as §2, §3, §4

- IC50 [1]: 5.49 nM
- IC50 [2]: 5.16 nM
- EC50 [3]: 23.6 nM
- EC50 [4]: 15.3 nM
B1: STIM001_457 (bispecific antibody, V domains shown, not shown: a dimerising Fc or GST)
VH: QVQVVQSGAEVKKPGASVKVSCKASGYTFSTFGITWVRQAPGQGLEWMGWISAYNGDTNYAQNLQGRVIMTTDTSTSTAYMELRSLRSDDTAVYYCARSSGHYYYYGMDVWGQGTTVTVSS
VL: DIVMTQSPLSLPVTPGEPASISCRSSQSLLHSNEYNYLDWYLQKPGQSPQLLIFLGSNRASGVPDRFSGSGSGTDFTLKITRVEAEDVGIYYCMQSLQTPLTFGGGTKVEIK
notes: mAb^2 IgG1; also called STIM001_457 mAb^2

- EC50 [5]: 0.252 nM
- EC50 [6]: 0.289 nM
- EC50 [7]: 0.288 nM
B2: STIM003_457 (bispecific antibody, V domains shown, not shown: a dimerising Fc or GST)
VH: EVQLVESGGGVVRPGGSLRLSCVASGVTFDDYGMSWVRQAPGKGLEWVSGINWNGGDTDYSDSVKGRFTISRDNAKNSLYLQMNSLRAEDTALYYCARDFYGSGSYYHVPFDYWGQGILVTVSS
VL: EIVLTQSPGTLSLSPGERATLSCRASQSVSRSYLAWYQQKRGQAPRLLIYGASSRATGIPDRFSGDGSGTDFTLSISRLEPEDFAVYYCHQYDMSPFTFGPGTKVDIK
notes: mAb^2 IgG1; also called ST1M003_457; STIM003_457 mAb^2
